Data taken from paper PMC3126804.

Legend:
[1] = biological target: heat shock protein 60 (Hsp60) on human ileocecal epithelial HCT-8 cells (human (endogenous in HCT-8)) (UniProt P10809); assay: adhesion of protein-coated fluospheres to cell monolayers; sulphate-modified fluospheres (1.0 µm) coated with 160 µg/mL of each purified protein (average bound 140 µg/ml) or 0.1% BSA, added to confluent HCT-8 monolayers (cells to spheres about 1:100), 2 h at 37°C, washed five times, read at 485/538 nm; also after pretreatment of cells with anti-Hsp60 MAb (1 µg/well, 1 h)
[2] = biological target: heat shock protein 60 (Hsp60) on human ileocecal epithelial HCT-8 cells (human (endogenous in HCT-8)) (UniProt P10809); assay: adhesion of protein-coated fluospheres to cell monolayers; as the fluosphere assay on HCT-8 monolayers, but protein concentrations adjusted to have an equal number of molecules of each protein before immobilising on beads
[3] = biological target: Listeria adhesion protein (LAP), full-length (Listeria monocytogenes); assay: ELISA; called immunofluorescence assay in microtiter plates: LAP proteins immobilised at 62.5–500 ng/100 µL (0.05 M sodium carbonate, pH 9.6) in Immulon 4HBX plates; Hsp60 100 µL of 2.4 µg/mL, RT 1.5 h; anti-Hsp60, HRP anti-mouse, fluorescent substrate Super Red; controls subtracted; KD from the 1-site binding equation (Prism 3)
[4] = biological target: LAP subdomain N2 (Gly224–Gly411) (Listeria monocytogenes (strain F4244)); assay: as above

Substance	mean fluorescence unit (fluorescence unit) [1]	mean fluorescence unit (fluorescence unit) [2]	Kd [3]	Kd [4]
LAP subdomain N2 (Gly224–Gly411) (domain or fragment)	1400	1360		
Listeria adhesion protein (LAP), full-length (natural protein)	999	1380		
heat shock protein 60 (Hsp60), purified (from UniProt P10809 27-573) (natural protein)			7.17 nM	9.51 nM
